Results published in patent publication US7611693B2, “Mechanism-based targeted pancreatic beta cell imaging and therapy” (Board of Regents, The Univerisity of Texas System, priority 2003, dated 2009).

What was measured:
[1] = Animal studies: acute toxicity at the given doses; assay type: in vivo
From the text: (§1) The present disclosure addresses at least in part some deficiencies in the prior art by providing novel DTPA-antidiabetic conjugates useful for imaging beta-cell function. Through binding of radiolabeled conjugates, such as ^99mTc-DTPA-antidiabetic conjugates, for example, to pancreatic beta receptors, detectable by gamma scintigraphy, pancreatic function is monitored. Four DTPA-antidiabetic conjugates have been synthesized and evaluated. […] These agents are labeled with isotopes in order to assess beta cell function in diabetic or insulinoma patients both pre- and post-treatment. These compositions and methods are useful to provide early diagnosis as well as monitoring of response of pancreatic disease during treatment.

pancreas [2] = conditions: rat, in vivo, iv
From the text: FIG. 47 is a graphical representation comparing pancreas uptake for ^99mTc-DTPA and ^99mTc-DTPA-NGN in breast tumor-bearing rats (n=3/time interval, 20 μCi, IV, p=0.11, 0.05, and 0.01).
FIG. 48 is a graphical representation of pancreas to muscle count density ratio of ^99mTc-DTPA and ^99mTc-NGN in breast tumor bearing rats (n=3/time interval, μCi/rat, IV, p=0.19, 0.19, and 0.029).
Male (n=4) New Zealand white rabbits (Raynichols Rabbitry, Lumberton, Tex.) were inoculated with VX-2 cells (rabbit driven mammary squamous cell carcinoma). At day 14 post-inoculation, scintigraphic imaging studies were conducted with ^99mTc-DTPA-NGN (1 mCi, iv). Computer outlined region of interest was used to analyze target-to-nontarget ratios.

pancreatic beta cells = assay: Animal studies: selective imaging of pancreatic beta cells; assay type: in vivo
From the text: as §1

pancreas [3] = assay: Scintigraphic imaging in rodents (planar gamma imaging); assay type: in vivo; conditions: normal rat and 13762 tumor-bearing rats, 300 μCi via tail vein, FIGS. 36-44
Method: Scintigraphic imaging in rodents was conducted as follows:
Female Fischer 344 rates (150-175 g) (Harlan Sprague-Dawley, Inc., Indianapolis, Ind.) were inoculated subcutaneously in the right leg with breast cancer cells (10^6 cells/rat) from the 13762 NF cell line (known as DMBA-induced breast cancer cell line). Scintigraphic imaging was serially performed on day 14 after inoculation. Planar images were obtained at 0.5, 1 and 2 hours after injection of 300 μCi of ^99mTc-DTPA-NGN or ^99mTc-DTPA-GLP via tail vein. Control groups were given ^99mTc-DTPA. Imaging was conducted with a gamma camera from Digirad (2020tc Imager, San Diego, Calif.) equipped with a low-energy parallel-hole collimator. The field of view is 20 cm×20 cm with an edge of 1.3 cm. The intrinsic spatial resolution is 3 mm and the matrix is 64×64. The system is designed for a planar image with sensitivity of 56 counts/second (cps)/MBq and spatial resolution of 7.6 mm.

Question: With `CC(C)[C@H]1CC[C@H](C(=O)N[C@H](Cc2ccccc2)C(=O)NCCNC(=O)CN(CCN(CCN(CC(=O)O)CC(=O)NCCNC(=O)[C@@H](Cc2ccccc2)NC(=O)[C@H]2CC[C@H](C(C)C)CC2)CC(=O)O)CC(=O)O)CC1` [DTPA-nateglinide, DTPA-Nateglinide] as the molecule, how does the acute toxicity [1] read?
Answer: no acute toxicity

Question: With `CC(C)[C@H]1CC[C@H](C(=O)N[C@H](Cc2ccccc2)C(=O)NCCNC(=O)CN(CCN(CCN(CC(=O)O)CC(=O)NCCNC(=O)[C@@H](Cc2ccccc2)NC(=O)[C@H]2CC[C@H](C(C)C)CC2)CC(=O)O)CC(=O)O)CC1` [^99mTc-DTPA-nateglinide, metal not drawn] as the molecule, how does the “pancreas uptake compared with control groups” value (pancreas [2]) read?
Answer: pancreas uptake was higher than control groups

Question: Which “selective imaging of pancreatic beta cells” value (pancreatic beta cells) does the source give for DTPA-Glipizide here?
Answer: able to selectively image pancreatic beta cells

Question: With ^99mTc-DTPA-glipizide as the molecule, how does the “visualization of pancreas by planar scintigraphy” value (pancreas [3]) read?
Answer: pancreas could be visualized
